Measured values as given in paper PMC6073527, “Functional Characterization and Structure-Guided Mutational Analysis of the Transsulfuration Enzyme Cystathionine γ-Lyase from Toxoplasma gondii” (International Journal of Molecular Sciences, 2018).

Key:
[1] = molecular target: T1, Cystathionine γ-lyase (TgCGL) (Toxoplasma gondii, UniProt A0A125YN40, S77E); assay: UV-visible absorption titration at […] and […] nm (no hydrolysis detected); format: binding
T1 construct: gene TGME49_312930; full-length, N-terminal His6 tag
T1 sequence (A0A125YN40 1-417 S77E): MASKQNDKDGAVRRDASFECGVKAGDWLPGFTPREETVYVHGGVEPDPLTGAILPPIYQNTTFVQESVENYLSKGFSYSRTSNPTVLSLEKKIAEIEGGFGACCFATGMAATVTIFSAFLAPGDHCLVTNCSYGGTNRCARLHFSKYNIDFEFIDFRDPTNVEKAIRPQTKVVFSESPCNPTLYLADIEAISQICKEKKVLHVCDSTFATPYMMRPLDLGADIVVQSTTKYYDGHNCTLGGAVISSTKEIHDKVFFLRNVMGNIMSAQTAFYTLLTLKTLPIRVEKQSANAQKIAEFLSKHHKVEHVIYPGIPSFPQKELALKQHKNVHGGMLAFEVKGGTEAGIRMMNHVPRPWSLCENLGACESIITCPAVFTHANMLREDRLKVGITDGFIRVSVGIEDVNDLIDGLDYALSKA

[2] = molecular target: T2, Cystathionine γ-lyase (TgCGL) (Toxoplasma gondii, UniProt A0A125YN40, N360S); assay: UV-visible absorption titration at […] and […] nm; also substrate inhibition (Ki […]); format: binding
T2 construct: gene TGME49_312930; full-length, N-terminal His6 tag

[3] = molecular target: T3, Cystathionine γ-lyase (TgCGL) (Toxoplasma gondii, UniProt A0A125YN40); assay: as above; format: binding
T3 construct: gene TGME49_312930; full-length, N-terminal His6 tag
T3 sequence (A0A125YN40 1-417): T1 sequence (A0A125YN40 1-417 S77E)

[4] = molecular target: T4, Cystathionine γ-lyase (TgCGL) (Toxoplasma gondii, UniProt A0A125YN40); assay: intrinsic fluorescence titration of apo-TgCGL (excitation […] nm, emission […] nm); format: binding
T4 construct: gene TGME49_312930; full-length, N-terminal His6 tag (apo-protein)

[5] = system: N[C@@H](CCSC[C@H](N)C(=O)O)C(=O)O; assay: purified protein; format: biochemical, Toxoplasma gondii; conditions: PLP active site; external aldimine with PLP (modelled); pH 9.0; 37.0 °C
[6] = system: N[C@@H](CSCSC[C@H](N)C(=O)O)C(=O)O; assay: steady-state kinetics of the purified enzyme, LDH-coupled assay (Km); format: biochemical, Toxoplasma gondii; conditions: PLP; pH 9.0; 37.0 °C
[7] = system: N[C@@H](CCSC[C@H](N)C(=O)O)C(=O)O; assay: steady-state kinetics of the purified enzyme, DTNB assay (Km); format: biochemical, Toxoplasma gondii; conditions: PLP; pH 9.0; 37.0 °C
[8] = molecular target: cystathionine γ-lyase from Toxoplasma gondii (Toxoplasma gondii); assay: SEC; analytical gel filtration on Superdex 200 HR 10/300 GL; 50 mM sodium phosphate buffer pH 8.5, 150 mM NaCl, 0.1 mM DTT; mass from a calibration curve
[9] = substrate: N[C@@H](CSCSC[C@H](N)C(=O)O)C(=O)O; assay: steady-state kinetics of the purified enzyme, LDH-coupled assay (Km); format: biochemical, Toxoplasma gondii; conditions: PLP; pH 9.0; 37.0 °C; remark: listed apart in the source
purified protein = substrate: N[C@@H](CCSC[C@H](N)C(=O)O)C(=O)O; assay: purified protein; conditions: PLP active site; external aldimine with PLP (modelled); pH 9.0; 37.0 °C
[10] = substrate: NCCSC[C@H](N)C(=O)O; assay: steady-state kinetics of the purified enzyme, α,β-elimination (Km); format: biochemical, Toxoplasma gondii; conditions: PLP

Which Kd [1] does the source give for `N[C@@H](CS)C(=O)O` [L-cysteine] here?
The Kd was 677 ± 180 (335 nm); 874 ± 87 (421 nm) µM.

And the Kd [2]?
The Kd was 335 ± 15 (335 nm); 331 ± 20 (421 nm) µM.

And the Kd [3]?
The Kd was 306 ± 41 (335 nm); 273 ± 52 (421 nm) µM.

How did the Kd [4] turn out when `Cc1ncc(COP(=O)(O)O)c(C=O)c1O` [PLP] was run?
Its Kd is 170 ± 40 nM.

What does the source list for “Cystathionine γ-lyase (TgCGL) (Toxoplasma gondii ME49; N360S)”?
Km [5]: 1100 ± 100 µM; kcat [5]: 0.08 ± 0.01 s⁻¹; kcat/Km [5]: 73 ± 16 M⁻¹ s⁻¹; Km [6]: 860 ± 30 µM; kcat [6]: 0.19 ± 0.01 s⁻¹; kcat/Km [6]: 220 ± 20 M⁻¹ s⁻¹

With “Cystathionine γ-lyase (TgCGL) (Toxoplasma gondii ME49; S77A)” as the molecule, how does the Km [7] read?
Its Km is 2400 ± 300 µM.

What about the kcat [7] of the same molecule?
The kcat was 0.7 ± 0.1 s⁻¹.

And the kcat/Km [7]?
Its kcat/Km is 290 ± 80 M⁻¹ s⁻¹.

For “cystathionine γ-lyase from Toxoplasma gondii (enzyme)”, which stoichiometry N [8] is on record?
Its stoichiometry N is 4.

B1: Cystathionine γ-lyase (TgCGL) (Toxoplasma gondii ME49) (protein)
chain: T1 sequence (A0A125YN40 1-417 S77E)
notes: full-length, N-terminal His6 tag
What does the source list for B1?
Km [9]: 510 ± 10 µM; kcat [9]: 0.24 ± 0.01 s⁻¹; kcat/Km [9]: 470 ± 30 M⁻¹ s⁻¹; Km (purified protein): 900 ± 100 µM; Km [10]: 1300 ± 100 µM
